Molecular target: the molecule itself
Experiment: crystal structure

B1: Methanococcus jannaschii Thi4 (thiazole synthase) (enzyme)
chain: MVNLMNIKDIKLNADETKTTKAILKASFDMWLDIVEADVVIVGAGPSGLTCARYLAKEGFKVVVLERHLAFGGGTWGGGMGFPYIVVEEPADELLREVGIKLIDMGDGYYVADSVEVPAKLAVAAMDAGAKILTGIVVEDLILREDGVAGVVINSYAIERAGLHIDPLTIRSKVVVDATGHEASIVNILVKKNKLEADVPGEKSMWAEKGENALLRNTREVYPNLFVCGMAANASHGGYRMGAIFGGMYLSGKLCAELITEKLKNKE
stoichiometry N: 8

Reference: paper PMC4811699 (Biochemistry, 2016)
